Assay results published in patent US20130230533A1 (Regeneron, published 2013).

T1: human CD48 (on primary human peripheral blood mononuclear cells) (human, UniProt P09326 27-220)
T1 sequence: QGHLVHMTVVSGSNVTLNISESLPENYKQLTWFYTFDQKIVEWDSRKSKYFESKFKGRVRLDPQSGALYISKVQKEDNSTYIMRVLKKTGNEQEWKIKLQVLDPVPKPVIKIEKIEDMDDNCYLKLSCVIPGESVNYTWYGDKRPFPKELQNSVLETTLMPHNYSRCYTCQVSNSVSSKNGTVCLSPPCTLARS

T2: biotinylated dimeric human CD48 protein expressed as a fusion with mouse IgG2a Fc (human, biotinylated)
T2 construct: also called bio-hCD48-mFc; Dimeric human CD48-mFc
T2 chain: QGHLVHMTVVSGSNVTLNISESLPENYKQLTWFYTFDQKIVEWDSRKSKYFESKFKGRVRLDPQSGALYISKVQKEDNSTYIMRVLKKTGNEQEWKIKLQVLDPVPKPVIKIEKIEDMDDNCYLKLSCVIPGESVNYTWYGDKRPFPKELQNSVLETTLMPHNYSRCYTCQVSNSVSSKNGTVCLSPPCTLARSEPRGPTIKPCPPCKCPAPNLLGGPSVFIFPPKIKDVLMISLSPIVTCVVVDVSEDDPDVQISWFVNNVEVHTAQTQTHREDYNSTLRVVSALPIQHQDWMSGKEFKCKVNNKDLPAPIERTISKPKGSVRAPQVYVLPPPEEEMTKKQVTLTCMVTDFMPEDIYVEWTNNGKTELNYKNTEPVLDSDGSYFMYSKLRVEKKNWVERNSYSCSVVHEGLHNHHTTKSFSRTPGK

T3: monomeric monkey CD48 expressed with a tag consisting of 2 myc and one 6-His epitopes (monkey)
T3 construct: also called mfCD48-mmH; Monomeric monkey CD48-mmH
T3 chain: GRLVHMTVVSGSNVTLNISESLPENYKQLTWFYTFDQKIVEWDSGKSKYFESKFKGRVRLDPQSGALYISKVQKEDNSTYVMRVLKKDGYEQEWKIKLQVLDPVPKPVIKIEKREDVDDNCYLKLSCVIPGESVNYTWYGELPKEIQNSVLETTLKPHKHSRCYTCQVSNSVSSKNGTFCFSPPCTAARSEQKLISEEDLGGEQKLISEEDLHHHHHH


Legend:
[1] = molecular target: T1, human CD48 (on primary human peripheral …); assay: cell-based or functional assay
[2] = molecular target: T2, biotinylated dimeric human CD48 protein …; assay: competition ELISA; blocks bio-hCD48-mFc binding to coated h2B4-mFc
Procedure: (§1) The ability of human anti-CD48 monoclonal antibodies to block human CD48 and monkey CD48 binding to the human cognate ligand, human 2B4, was measured using a competition sandwich ELISA (Table 8). Constant amounts of biotinylated dimeric human CD48 protein expressed as a fusion with mouse IgG2a Fc (“bio-hCD48-mFc” [SEQ ID NO: 387]) or monomeric monkey CD48 expressed with a tag consisting of 2 myc and one 6-His epitopes (“mfCD48-mmH” [SEQ ID NO: 386]) were separately titrated with varying amounts of antibodies. These antibody-protein complexes were incubated (1 hr, 25° C.) before being transferred to microtiter plates coated with a dimeric construct expressing the human 2B4 receptor fused to a either human IgG1 (h2B4-hFc [R&D Systems, Inc., Minneapolis, Minn., Cat. No. 1039-2B]) or mouse IgG2a Fc (h2B4-mFc [SEQ ID NO: 389). After a 1 hr at 25° C. the wells were washed and bound human CD48 was detected with streptavidin conjugated with horse-radish peroxidase (HRP), and monkey CD48 was detected with an HRP conjugated anti-myc polyclonal antibody. The ELISA was developed with a TMB solution to produce a colorimetric reaction and quenched with sulfuric acid before reading absorbance at 450 nm on a Victor X5 plate reader. Sigmoidal dose response curves were fit to the data using Prism™ software. […] (Tables 8 and 9, NB=no binding observed)

[3] = molecular target: T3, monomeric monkey CD48 expressed with a …; assay: competition ELISA; blocks mfCD48-mmH binding to coated h2B4-mFc
Procedure: as §1

[4] = molecular target: T1, human CD48 (on primary human peripheral …); assay: cell-based or functional assay; remark: listed apart in the source
[5] = molecular target: T1, human CD48 (on primary human peripheral …); assay: cell-based or functional assay; remark: listed apart in the source
[6] = molecular target: T1, human CD48 (on primary human peripheral …); assay: cell-based or functional assay; remark: listed apart in the source

Binder	IC50 [2]	IC50 [3]	% Blockade of IFNγ release, MLR; D1 [4]	% Blockade of IFNγ release, MLR; D2 [4]	% Blockade of IFNγ release, MLR; D3 [4]	% Blockade of IFNγ release, MLR; D5 [4]	% Blockade of IFNγ release, MLR; D6 [4]	% Blockade of IFNγ release, MLR; D7 [4]	% Blockade of IFNγ release, MLR; D9 [4]	Inhibition of IFN-gamma Release IC50; Donor 11 [5]	Inhibition of IFN-gamma Release IC50; Donor 9 [5]	also measured
H4H1774P (antibody, human IgG4, V domains shown, Human IgG4 Fc (H4H)) VH: QVQLVESGGGVVQPGRSLRLSCAASGFTFSNYGMHWVRQAPGKGLEWVAVIWYDESSKYYTDSVKGRFTISRDNSQNTLYLQMTSLRAEDTAVYYCARDRWTYSHYFEYWGQGTLVTVSS VL: DIQMTQSPSSVSASVGDRVTITCRASQGISSWVAWYQQKPGKAPKLLIYAASSLQSGVPSRFSGSGSGTDFTLTISSLQPEDFATYYCQQANSFPRTFGQGTKVEIK	25 pM	16 pM										Inhibition of IFN-gamma Release IC50; Donor 6 [1]: 2.5e-11 Molar; Inhibition of IFN-gamma Release IC50; Donor 7 [1]: 9.5e-12 Molar
H4H1770P (antibody, human IgG4, V domains shown, Human IgG4 Fc (H4H)) VH: QVQLVQSGAEVKKPGAAVKVSCKASGYTFTAYGISWVRQAPGQGLEWMGWISAYDGDTNNAQKFQGRVTMTTDTSSSTAYMELRSLGSDDTAVYYCARDRYSSSSGYFDYWGQGTLVTVSS VL: DIQMTQSPSSVSASVGDRVTITCRASQDISSWLAWSQQKPGKAPKALIYAASSLQSGVPSRFSGSGSGTDFTLTISSLQPEDFATYYCQQANSFPYTFGQGTKLEIK	20 pM	22 pM										
H4H1713N (antibody, human IgG4, V domains shown, Human IgG4 Fc (H4H) form of 1713N) VH: QVQLVQSGAEVKKPGASVKVSCKASGHTFTNYYIHWVRQAPGQGLEWMGITNPNDGNTRYAQKFQGRISMTWDTSTSTVFMELSSLKSEDTAVYYCAGLRYWFFDLWGRGTPVTVSS VL: DIQMTQSPSSVSASVGDRVTITCRASQDISSWLAWYQQKPGKAPNLLIFAASSLQSGVPSRFSGSGSGTDFTLTISSLQPEDFGTYYCQQTDNFPRTFGQGTKVEIN	18 pM	3.4 pM										
H4H1779P (antibody, human IgG4, V domains shown, Human IgG4 Fc (H4H)) VH: QVQLVESGGGVVQPGRSLRLSCAASGFTFSNYGMHWVRQAPGKGLEWVAVIWYDESSKHYADSVKGRFTISRDNSQNTLYLQMTSLRAEDTAVYYCARDRWTYSHYFEYWGQGTLVTVSS VL: DIQMTQSPSSVSASVGDRVTITCRASQDISSWVAWYQQKPGKAPKLLIYAASSLQSGVPSRFSGSGSGTDFTLTISSLQPEDFATYYCQQANSFPRTFGQGTKVEIK	16 pM	5.7 pM										Inhibition of IFN-gamma Release IC50; Donor 6 [1]: 1.7e-12 Molar; Inhibition of IFN-gamma Release IC50; Donor 7 [1]: 1.5e-11 Molar
H4H1771P (antibody, human IgG4, V domains shown, Human IgG4 Fc (H4H)) VH: QVQLVQSGTEVKKPGASVKVSCKVSGYTLIDLSIHWVRQAPGEGLEWMGGFDPEESETIYAQKFQGRVTMTEDTSTDTAYMELSSLRSEDTAVYYCVTEPIFGILIHESWGQGTLVTVSS VL: DIVMTQTPLSSPVTLGQPASISCRSSHSPVHSNGHTYLSWLQQRPGQPPRILIYKISRRFSGVPDRFSGSGAGTDFTLKISRVETEDVGIYYCMQASQFPWTFGQGTKVEIK	9.9 pM	2.2 pM	78%	79%	88%	47%	50%	36%	32%	1.5e-11 Molar		
H4H1763N (antibody, human IgG4, V domains shown, Human IgG4 Fc (H4H) form of 1763N) VH: QIQLVQSGAEMKRPGTSVKVSCKASGYTFTSYGINWVRQAPGQGLEWMGWISAYNGDTNYAQKLQGRVTMTTDTSTTTAYMEVRSLRSDDTAVYYCARFLTGTKDYYYGMDVWGQGTTVTVSS VL: DIQMTQSPSSLSASVGDRVTITCQASQDISNFLNWYQQKPGKAPDLLINDASILETGVPSRFSGSGSGTDFTLTINNLQPEDIATYYCQQYDNLPLTFGGGTKVEIK	7.4 pM	7.2 pM	59%	89%	68%	63%	75%	48%	53%	3.4e-12 Molar	9.3e-12 Molar	% Blockade of IFNγ release, MLR; D4 [4]: 52%; % Blockade of IFNγ release, MLR; D8 [4]: 30%; Inhibition of IFN-gamma Release IC50; Donor 8 [5]: 8.6e-12 Molar; Inhibition of IFN-gamma Release IC50; Donor 10 [5]: 1e-12 Molar; IC50 of IFNγ release, MLR; D1 [6]: ~10 pM; IC50 of IFNγ release, MLR; D3 [6]: ~6.4 pM; IC50 of IFNγ release, MLR; D4 [6]: 210 pM; IC50 of IFNγ release, MLR; D5 [6]: ~27 pM; IC50 of IFNγ release, MLR; D6 [6]: 23 pM; IC50 of IFNγ release, MLR; D8 [6]: ~3700 pM; IC50 of IFNγ release, MLR; D9 [6]: ~4100 pM; IC50 of IFNγ release, MLR; D10 [6]: ~84 pM; IC50 of IFNγ release, MLR; D11 [6]: 73 pM; IC50 of IFNγ release, MLR; D12 [6]: ~56 pM; IC50 of IFNγ release, MLR; D13 [6]: 92 pM; IC50 of IFNγ release, MLR; D14 [6]: 63 pM; IC50 of IFNγ release, MLR; D15 [6]: ~0.059 pM; IC50 of IFNγ release, MLR; D16 [6]: 7.6 pM
H4H1764N (antibody, human IgG4, V domains shown, Human IgG4 Fc (H4H) form of 1764N) VH: QVQLVESGGGVVQPGRSLRLSCAASGFTFSDYGMHWVRQAPGKGLEWVAVIWNDGSNKNYADSVKGRFSISSDSSKNTLYLHMNSLRAEDTAVYYCARSLYSTSPWYFDLWGRGTLVTVSS VL: not shown	76 pM	160 pM	69%	46%	80%	75%	59%	48%		2.3e-11 Molar	3.1e-11 Molar	Inhibition of IFN-gamma Release IC50; Donor 8 [5]: 5.3e-12 Molar; Inhibition of IFN-gamma Release IC50; Donor 10 [5]: 5.1e-12 Molar
H4H1707N (antibody, V domains shown, Human IgG4 Fc (H4H) form of 1707N) VH: EGQLLESGGGLAQPGGSLRLSCAASGITFGRYAMSWVRQAPGKGLEWVSLISGSGGSTYHADSVKGRFTISRDNSKNTLYLQMNSLRAEDTAVYYCAIYNNYNWFDPWGQGTLVTVSS VL: EIVLTQSPGTLSLSPGERATLSCRASQSVSSNYLAWYQQKPGQAPRLLIYDASSRATDIPDRFSGSGSGTDFTLTISRLEPEDFAVYYCQQYGSSPRTFGQGTKVEIK	22 pM	45 pM	66%	87%	78%	62%	77%	62%	60%		5.1e-11 Molar	% Blockade of IFNγ release, MLR; D4 [4]: 20%; % Blockade of IFNγ release, MLR; D8 [4]: 42%
